Results reported in patent US9926349B2, “Chimeric molecule useful in immunotherapy for leishmaniasis, which includes a fragment of the PFR1 protein of leishmania infantum with specific immunodominant epitopes” (priority 2011, dated 2018).

B1: PFR1 protein: PFR1 recombinant protein of L. infantum expressed in a prokaryotic expression system and purified by affinity chromatography (protein, listed as Leishmania infantum)
chain: MMTPEDATGLEAARKQKIHNLKLKTACLENEELVQELHISDWSETQRQKLRGAHEKGEELLASVEVGTKWNLMEAYDLAKLMRVCGLEMSQRELYRPEDKPQFMDIIGVKKVLQDLRQNRNKTRVVSFTQLIDNSIAKMEKVEEELRRSQLDATQLAQVPTRTVKMMEDIMNATQIQNALASTDDQMQTQLAQLEKTNEIQNVAMHDGETQVAEEQMWTKVQLQERLIELLKDKFGLIGKCEEENAQFKEIYEVQKQANQETSQMKDAKRRLRQRCETDLKHIQDAIQKADLEDAEAVKRYPRNKERSERAIKENEEMQEEAWNKIQDLERQLQNLGTDRFDEVKRRIEEVDREEKRRVENAQFLEIAAQHKKLLELTVYNCDLAMRCTGLVEELVSEGCAGVKARYDKTNQDLAALRLEVHKEHLEYFRMLYLTLGSLIYKKEKRLEEIDRNIRLAHIQLEFCVETFDPNAKKHADMKKELYRLRQGVEEELAMLKEKQAAALDDFKESEEALDAAGIEFSHPVDENNEEVLTRRSKMVEYKSHLTKEEEVRIAAEREEIKRARLLRSGGESAAAQITSGSMNADYAASAQLEL
modifications: /mol_type=”protein“ /organism=”Leishmania infantum“; REGION 1..595 ”PFR1 protein aminoacids“; REGION 160..595 ”SEQ ID No 9“; REGION 160..548 ”SEQ ID No 10“; REGION 160..385 ”SEQ ID No 11“; PEPTIDE 103..113 ”SEQ ID No 1“; PEPTIDE 150..159 ”SEQ ID No 2“; PEPTIDE 165..173 ”SEQ ID No 4“; PEPTIDE 204..212 ”SEQ ID No 5“; PEPTIDE 222..230 ”SEQ ID No 6“; PEPTIDE 373..382 ”SEQ ID No 3“

Tested on: alveolar macrophages of naive rat
Assay: Nitric oxide production by alveolar macrophages stimulated with recombinant protein
Type: cell-based
Conditions: for NO activation in the presence of polymyxin B: plus polymyxin B (LPS activity-induced inhibitor)
Excerpt: FIG. 2. Measurement of Nitric Oxide (NO) concentration in the supernatant of macrophages culture stimulated with lipopolysaccharide (LPS); lipopolysaccharide+polymyxin B (LPS+PolB); purified PFR-1 protein (PFR-1); purified PFR-1 protein+polymyxin B (PFR1+PolB); L-NG-monomethyl arginine citrate (LNMMA); purified PFR-1 protein+L-NG-monomethyl arginine citrate (PFR1+LNMMA). Concentration is expressed in μmol/liter.
PFR1 protein of Leishmania infantum is encompassed within the family of characteristic proteins of paraflagellar rod proteins from kinetoplastids. In FIG. 1, we show the PFR1 recombinant protein of L. infantum expressed in a prokaryotic expression system and purified by affinity chromatography. […] This activation of nitric oxide production confers to the aforementioned protein a relevant immunological feature because NO favors the clearance of the amastigotes of Leishmania that multiply within the host macrophages. In FIG. 2, the values of NO production by these alveolar macrophages are collected by stimulating them with LPS (control) and the PFR1 protein.

Molecule | NO activation in the presence of polymyxin B | production of nitric oxide (NO) by alveolar macrophages (naive rat alveolar macrophages stimulated with the protein) | NO activation in the presence of LNMMA (plus L-NG-monomethyl arginine, nitric oxide synthase inhibitor)
lipopolysaccharide [LPS, reference compound] | inhibited by the presence of polymyxin B | – | –
B1 | unlike the one detected for PFR1 protein, the activation observed for LPS is inhibited by the presence of polymyxin B | ability to activate the production of nitric oxide (NO) | inhibits the NO activation induced by the PFR1 protein
